The source of these data is the supplement of paper PMC9112550, “Optimization of the antimicrobial peptide Bac7 by deep mutational scanning” (BMC Biology, 2022).
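Also: peptides expressed intracellularly from a pBAD plasmid library in pooled LB shake-flask culture, induced with 0.3% L-arabinose, DNA abundance read by NGS, three biological replicates, DESeq2 with apeglm shrinkage.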

For the series, the system named is Escherichia coli TOP10. Put plainly: shrunken log2 fold change of peptide-encoding DNA abundance (4.5 h post-induction vs induction); higher = less antimicrobial activity (less host growth inhibition). As to conditions: time post-induction: 4.5 h; library: site-saturation at positions 5, 18, 19, 20.
In the case of RRIRDRPPRLPRPRPRPVPCPRP, the “shrunken log2 fold change” value amounted to 0.0758. Turning to RRIRDRPPRLPRPRPRPHMAPRP, the “shrunken log2 fold change” value is -0.232.

On to RRIRARPPRLPRPRPRPTCKPRP, for which the “shrunken log2 fold change” value is 0.0463. With RRIRTRPPRLPRPRPRPKDFPRP, the “shrunken log2 fold change” value is -0.00116.

On to RRIRTRPPRLPRPRPRPQKSPRP, for which the “shrunken log2 fold change” value was -0.0823. For the sequence RRIRQRPPRLPRPRPRPAHDPRP, the “shrunken log2 fold change” value is -0.161. As to RRIRWRPPRLPRPRPRPLQTPRP, the “shrunken log2 fold change” value came to 0.957. As for RRIRRRPPRLPRPRPRPKEFPRP, the “shrunken log2 fold change” value was determined as 0.0689. With RRIRCRPPRLPRPRPRPPSWPRP the figure was 0.194; with RRIRERPPRLPRPRPRPFLKPRP, -0.0233. Next, RRIRFRPPRLPRPRPRPHWCPRP: -0.262; RRIRCRPPRLPRPRPRPWFCPRP: -0.177. Next, RRIRIRPPRLPRPRPRPPSPPRP: 0.168; RRIRGRPPRLPRPRPRPVCNPRP: 0.636; RRIRVRPPRLPRPRPRPPPVPRP: 0.767.

As to RRIRDRPPRLPRPRPRPDTVPRP, the “shrunken log2 fold change” value was -0.0743. With RRIRWRPPRLPRPRPRPEKEPRP the figure was 0.0112; with RRIRVRPPRLPRPRPRPPHGPRP, -0.317. RRIRNRPPRLPRPRPRPGDNPRP: the “shrunken log2 fold change” value is 0.0229. With RRIRWRPPRLPRPRPRPGKMPRP the figure was 0.0641.

For RRIRMRPPRLPRPRPRPWDAPRP, the “shrunken log2 fold change” value was 0.228. Next, RRIRARPPRLPRPRPRPQETPRP: 0.0762. With RRIRTRPPRLPRPRPRPMNLPRP the figure was -0.348.

As for RRIRFRPPRLPRPRPRPIWYPRP, the “shrunken log2 fold change” value was 0.192. Next, RRIRCRPPRLPRPRPRPVEDPRP: -0.0221. As to RRIRDRPPRLPRPRPRPAPVPRP, the “shrunken log2 fold change” value was found to be 0.49.

RRIRNRPPRLPRPRPRPTTCPRP: the “shrunken log2 fold change” value is -0.275. With RRIRFRPPRLPRPRPRPGMCPRP the figure was -0.0231. With RRIRLRPPRLPRPRPRPESEPRP the figure was -0.000997; with RRIRPRPPRLPRPRPRPDAVPRP, 0.325. For the sequence RRIRVRPPRLPRPRPRPWYYPRP, the “shrunken log2 fold change” value turned out to be 0.0171.

Take RRIRARPPRLPRPRPRPWDSPRP: the “shrunken log2 fold change” value was -0.277. As to RRIRWRPPRLPRPRPRPCTFPRP, the “shrunken log2 fold change” value was -0.72. Turning to RRIRARPPRLPRPRPRPCHEPRP, the “shrunken log2 fold change” value is -0.055.

Consider RRIRNRPPRLPRPRPRPADMPRP, for which the “shrunken log2 fold change” value was -0.00154.

On to RRIRVRPPRLPRPRPRPIEDPRP, for which the “shrunken log2 fold change” value is -0.0208. With RRIRTRPPRLPRPRPRPAGEPRP the figure was 0.323. With RRIRARPPRLPRPRPRPQIWPRP the figure was 0.166; with RRIRLRPPRLPRPRPRPPPHPRP, 1.13. Next, RRIRRRPPRLPRPRPRPFPCPRP: 0.038. RRIRGRPPRLPRPRPRPMTQPRP: the “shrunken log2 fold change” value came to 0.28. With RRIRIRPPRLPRPRPRPPCWPRP the figure was 0.836.

As to RRIRKRPPRLPRPRPRPLAQPRP, the “shrunken log2 fold change” value is 0.801.

Regarding RRIRPRPPRLPRPRPRPTSLPRP, the “shrunken log2 fold change” value was 0.044. With RRIRERPPRLPRPRPRPSKSPRP, the “shrunken log2 fold change” value is -0.688. Next, RRIRERPPRLPRPRPRPMYVPRP: -0.0843; RRIRARPPRLPRPRPRPSRFPRP: 0.125. With RRIRQRPPRLPRPRPRPKHPPRP the figure was -0.0928; with RRIRDRPPRLPRPRPRPSKKPRP, -0.217; with RRIRFRPPRLPRPRPRPDYQPRP, -0.268.

As for RRIRPRPPRLPRPRPRPGQLPRP, the “shrunken log2 fold change” value is -0.0604. With RRIRIRPPRLPRPRPRPKPFPRP the figure was -0.00302; with RRIRIRPPRLPRPRPRPYVCPRP, 0.0199. On to RRIRARPPRLPRPRPRPYTNPRP, for which the “shrunken log2 fold change” value was -1.06. For the sequence RRIRLRPPRLPRPRPRPDEGPRP, the “shrunken log2 fold change” value was -0.018. With RRIRWRPPRLPRPRPRPPAMPRP the figure was 1.57; with RRIRTRPPRLPRPRPRPITCPRP, -0.223; with RRIRYRPPRLPRPRPRPLHKPRP, 0.0382. With RRIRPRPPRLPRPRPRPMLNPRP the figure was -0.164; with RRIRGRPPRLPRPRPRPPHVPRP, 1.04; with RRIRVRPPRLPRPRPRPYVEPRP, -0.132. In the case of RRIRPRPPRLPRPRPRPKPMPRP, the “shrunken log2 fold change” value turned out to be 0.218.

As for RRIRRRPPRLPRPRPRPFFRPRP, the “shrunken log2 fold change” value was 0.354.

On to RRIRKRPPRLPRPRPRPRLDPRP, for which the “shrunken log2 fold change” value amounted to 0.624.

Regarding RRIRHRPPRLPRPRPRPHIDPRP, the “shrunken log2 fold change” value is -0.241. With RRIRKRPPRLPRPRPRPIKTPRP the figure was -0.0153; with RRIRRRPPRLPRPRPRPNSLPRP, -0.652. Next, RRIRERPPRLPRPRPRPVCMPRP: -0.164. With RRIRRRPPRLPRPRPRPHIIPRP the figure was -0.259; with RRIRVRPPRLPRPRPRPYNQPRP, -0.844.

Take RRIRFRPPRLPRPRPRPMTYPRP: the “shrunken log2 fold change” value is -0.0939. For the sequence RRIRQRPPRLPRPRPRPWHPPRP, the “shrunken log2 fold change” value is -0.0543.

On to RRIRFRPPRLPRPRPRPLDGPRP, for which the “shrunken log2 fold change” value is -0.143.

For RRIRGRPPRLPRPRPRPEMDPRP, the “shrunken log2 fold change” value came to 0.982. As for RRIRVRPPRLPRPRPRPWCPPRP, the “shrunken log2 fold change” value is 0.0662. Next, RRIRPRPPRLPRPRPRPIHKPRP: -0.561; RRIRLRPPRLPRPRPRPFDPPRP: -0.352; RRIRNRPPRLPRPRPRPHPNPRP: 0.0207. As for RRIRYRPPRLPRPRPRPQHGPRP, the “shrunken log2 fold change” value is -0.0664.

As to RRIRNRPPRLPRPRPRPTSAPRP, the “shrunken log2 fold change” value is 0.163. With RRIRQRPPRLPRPRPRPRSIPRP, the “shrunken log2 fold change” value is -0.0928.

With RRIRFRPPRLPRPRPRPCWDPRP, the “shrunken log2 fold change” value is -0.0535.

In the case of RRIRTRPPRLPRPRPRPLVQPRP, the “shrunken log2 fold change” value amounted to 0.149. Regarding RRIRTRPPRLPRPRPRPVMEPRP, the “shrunken log2 fold change” value came out at 0.187.

With RRIRCRPPRLPRPRPRPWRIPRP, the “shrunken log2 fold change” value was -0.321. Next, RRIRSRPPRLPRPRPRPIHNPRP: -0.415; RRIRFRPPRLPRPRPRPPASPRP: 0.574; RRIRQRPPRLPRPRPRPMGNPRP: -0.136. For the sequence RRIRERPPRLPRPRPRPRTQPRP, the “shrunken log2 fold change” value came to 0.111. Next, RRIRQRPPRLPRPRPRPQLFPRP: 0.0846; RRIRKRPPRLPRPRPRPWIYPRP: -0.00162; RRIRRRPPRLPRPRPRPNHQPRP: -0.0677. Take RRIRQRPPRLPRPRPRPEVEPRP: the “shrunken log2 fold change” value was found to be 0.0391. With RRIRHRPPRLPRPRPRPDIAPRP the figure was 0.00497. For the sequence RRIRPRPPRLPRPRPRPALEPRP, the “shrunken log2 fold change” value amounted to 0.313. Take RRIRIRPPRLPRPRPRPEFPPRP: the “shrunken log2 fold change” value was -0.0115. On to RRIRHRPPRLPRPRPRPTTHPRP, for which the “shrunken log2 fold change” value was found to be 0.0467. Turning to RRIRDRPPRLPRPRPRPMRCPRP, the “shrunken log2 fold change” value is 0.147. Next, RRIRPRPPRLPRPRPRPGYMPRP: -0.126; RRIRFRPPRLPRPRPRPTLHPRP: -0.0536; RRIRERPPRLPRPRPRPKGQPRP: 0.132. With RRIRARPPRLPRPRPRPHAFPRP the figure was 0.231. Turning to RRIRQRPPRLPRPRPRPYFCPRP, the “shrunken log2 fold change” value was -0.396. With RRIRPRPPRLPRPRPRPNGDPRP the figure was -0.0945; with RRIRTRPPRLPRPRPRPHYTPRP, -1.01. Take RRIRERPPRLPRPRPRPEAAPRP: the “shrunken log2 fold change” value is 0.575.

On to RRIRVRPPRLPRPRPRPMIEPRP, for which the “shrunken log2 fold change” value is -0.255. For the sequence RRIRNRPPRLPRPRPRPDQEPRP, the “shrunken log2 fold change” value was -0.00963. Take RRIRYRPPRLPRPRPRPEHFPRP: the “shrunken log2 fold change” value was -0.0545.

In the case of RRIRFRPPRLPRPRPRPYCDPRP, the “shrunken log2 fold change” value is -0.535. Take RRIRLRPPRLPRPRPRPKQTPRP: the “shrunken log2 fold change” value stood at 0.0369. Turning to RRIRIRPPRLPRPRPRPLLMPRP, the “shrunken log2 fold change” value was -0.489. For the sequence RRIRLRPPRLPRPRPRPACSPRP, the “shrunken log2 fold change” value worked out at 0.0854.

For RRIRARPPRLPRPRPRPNHWPRP, the “shrunken log2 fold change” value is 0.0522. On to RRIRIRPPRLPRPRPRPPLDPRP, for which the “shrunken log2 fold change” value came to 0.0528. For RRIRERPPRLPRPRPRPCTPPRP, the “shrunken log2 fold change” value was -0.239. Regarding RRIRNRPPRLPRPRPRPPSDPRP, the “shrunken log2 fold change” value is -0.118. In the case of RRIRARPPRLPRPRPRPALMPRP, the “shrunken log2 fold change” value was 0.534. With RRIRFRPPRLPRPRPRPTQCPRP the figure was 0.322; with RRIRNRPPRLPRPRPRPIWPPRP, 0.152; with RRIRMRPPRLPRPRPRPVWLPRP, 3.04. On to RRIRDRPPRLPRPRPRPQDLPRP, for which the “shrunken log2 fold change” value came to 0.0112. For the sequence RRIRGRPPRLPRPRPRPAHDPRP, the “shrunken log2 fold change” value was determined as 0.643.

As to RRIRNRPPRLPRPRPRPPKNPRP, the “shrunken log2 fold change” value was 0.196. Consider RRIRPRPPRLPRPRPRPLSYPRP, for which the “shrunken log2 fold change” value amounted to 0.0626.
